Data published in patent US8609413B2, “Neurons, astrocytes and oligodendrocytes differentiated from a mammalian pluripotent or neural stem cells exposed to a pyridine deriviative” (Research Development Foundation, priority 2007, dated 2013).

System: human ESC-derived NPC / ESC aggregates
Assay: Air/liquid interface three-dimensional culture with added factors
Assay type: cell-based
Conditions: exogenously added factor
From the text: Air/liquid interface expansion/differentiation of NPC may be performed via the following protocol. One or more rosettes-enriched clusters may be manually removed and multiple clusters (e.g., about 5-10 clusters) may be plated on a hydrophilic polytetrafluoroethylene (PTFE) membrane (e.g., 6 mm diameter, 0.4 μm, BioCell-Interface, La Chaux-de-Fonds, Switzerland). This membrane may be deposited on a Millicell®-CM (0.4 μm) Culture Plate Insert (Millipore) (FIG. 5A). N2 medium may preferably be added (e.g., about 1 ml) underneath the membrane insert.
Air/liquid interface expansion/differentiation of NPC. Rosettes-enriched cluster were manually removed and 5-10 clusters were plated on a hydrophilic polytetrafluoroethylene (PTFE) membrane (6 mm diameter, 0.4 μm, BioCell-Interface, La Chaux-de-Fonds, Switzerland). This membrane was deposited on a Millicell®-CM (0.4 μm) Culture Plate Insert (Millipore) (FIG. 1). One ml of N2 medium was added underneath the membrane insert.

B1: Noggin: a polypeptide playing a key role in neural induction (protein, UniProt Q13253 28-232, looked up)
Noggin: QHYLHIRPAPSDNLPLVDLIEHPDPIFDPKEKDLNETLLRSLLGGHYDPGFMATSPPEDRPGGGGGAAGGAEDLAELDQLLRQRPSGAMPSEIKGLEFSEGLAQGKKQRLSKKLRRKLQMWLWSQTFCPVLYAWNDLGSRFWPRYVKVGSCFSKRSCSVPEGMVCKPSKSVHLTVLRWRCQRRGGQRCGWIPIQYPIISECKCSC
B1 was tested, and the “phenotype of engineered tissue” value was “had no influence on the self-organization and phenotype”.
